Assay [1] concerns the target T1, human full-length Notch3 with C-terminal FLAG tag, stably expressed on 293 FlpIn (TREx) cells (human, UniProt Q9UM47 40-2321).
T1 construct: whole, on cells; made by the same strategy as the Notch1 line; also called 293-N3; hN3
Briefly: FACS, phage scFv. (In flow cytometry, cells or beads pass a laser one at a time.)

Assay [2] has as its target T2, human full-length Notch1 with C-terminal FLAG tag, stably expressed on 293 FlpIn (TREx) cells (human, UniProt P46531 19-2555).
T2 construct: tetracycline/doxycycline-induced expression from pcDNA5/FRT/TO-HN1+FLAG; also called hN1; 293_N1
Briefly: FACS, phage scFv.

B1: N1wc540 (scFv, V domains shown)
VH: EVQLVQSGAEVKKPGASVKVSCKASGYNFTGYYMHWVRQAPGQGLEWMGWINPNSGGTNYAQKFQGRVTMTRDTSISTAYMELSRLRSDDTAVYYCATDSFDYWGQGTMVTVSS
VL: QAVLTQPSSASGTPGQRVTISCSGSSSNIGSYTVNWYQQVPGTAPKLLIYSNNQRPSGVPERFSGSKSGTSASLAISGLQSEDEADYYCAAWDDSLSDVLFGGGTKLTVL
notes: phage scFv
Turning to B1, the binding result in assay [1] and in assay [2] was “binds” throughout.

B2: hN1S3-053 (scFv, V domains shown)
VH: EVQLVQSGAEVKKPGASVKVSCKASGYNFTGYYMHWVRQAPGQGLEWMGWINPNSGGTNYAQKFQGRVTMTRDTSISTAYMELSRLRSDDTAVYYCATDSFDYWGRGTTVTVSS
VL: QAVLTQPSSVSGAPGQRVTISCTGSRSNIGAGYDVHWYQQLPGTAPKLLIYGNSNRPSGVPDRFSGSKSGTSASLAITGLQAEDEADYYCQSYDSSLSGSVFGGGTKLTVL
notes: phage scFv
Take B2: the binding result in assay [1] and in assay [2] was “binds” in each case.

B3: hN1S3-095 (scFv, V domains shown)
VH: EVQLVQSGAEVKKPGASVKVSCKASGYNFTGYYMHWVRQAPGRGLEWMGWINPNSGGTNYAQKFQGRVTMTRDTSISTAYMELSRLRSDDTAVYYCATDSFDYWGQGTLVTVSS
VL: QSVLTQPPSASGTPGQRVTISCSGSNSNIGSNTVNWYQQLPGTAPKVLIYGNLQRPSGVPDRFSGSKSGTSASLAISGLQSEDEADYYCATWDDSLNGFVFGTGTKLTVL
notes: phage scFv
Regarding B3, the binding result in assay [1] and in assay [2] was “binds” each time.

B4: hN1S3-055 (scFv, V domains shown)
VH: QVQLVQSGAEVKKPGASVKVSCKASGYNFTGYYMHWVRQAPGQGPEWMGWINPNSGGTNYAQKFQGRVTMTRDTSISTAYMELSRLRSDDTAVYYCATDSFDYWGRGTMVTVSS
VL: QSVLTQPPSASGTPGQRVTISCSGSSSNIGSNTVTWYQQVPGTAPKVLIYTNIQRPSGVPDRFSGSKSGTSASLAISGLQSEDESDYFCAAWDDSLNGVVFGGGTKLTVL
notes: phage scFv
Take B4: the binding result in assay [1] and in assay [2] was “binds” each time.

B5: hN1S3-181 (scFv, V domains shown)
VH: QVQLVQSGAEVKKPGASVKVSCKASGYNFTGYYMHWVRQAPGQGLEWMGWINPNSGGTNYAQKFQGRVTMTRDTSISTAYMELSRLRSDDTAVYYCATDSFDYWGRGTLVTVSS
VL: SYVLTQPPSASGTPGQRVTISCSGSSPNIGSNTVNWYQQLPGTAPKLLIYTNNQRPSGVPDRFSGSKSATSASLAISGLQFDDEADYFCAAWDDSLLGVVFGGGTKVTVL
notes: phage scFv
As for B5, the binding result in assay [1] and in assay [2] was “binds” each time.

B6: hN1S3-091 (scFv, V domains shown)
VH: EVQLVQSGAEVKKPGASVKVSCKASGYNFTGYYMHWVRQAPGQGLEWMGWINPNSGGTNYAQKFQGRVTMTRDTSISTAYMELSRLRSDDTAVYYCATDSFDYWGQGTMVTVSS
VL: QSVLTQPPSATGTPGQTVSISCSGGNSNIGSNYVSWYQQLPGTAPKLLIYSNNQRPSGVPDRFSGSKSGTSASLAISGLQSEDEADYYCAAWDDSLNGHIFGTGTKLTVL
notes: phage scFv
As to B6, the binding result in assay [1] and in assay [2] was “binds” each time.

B7: N1wc633 (scFv, V domains shown)
VH: QVQLQQSGAEVKKPGASVKVSCKASGYNFTGYYMHWVRQAPGQGLEWMGWINPNSGGTNYAQKFQGRVTMTRDTSISTAYMELSRLRSDDTAVYYCATDSFDYWGRGTLVTVSS
VL: QAVLTQPSSASGTPGQRVTISCSGSSSNIGSYTVNWYQQVPGTAPKLLIYSNNQRPSGVPERFSGSKSGTSASLAISGLQSEDEADYYCAAWDDSLSDVLFGGGTKVTVL
notes: phage scFv
Regarding B7, the binding result in assay [1] and in assay [2] was “binds” in each case.

B8: N1wc624 (scFv, V domains shown)
VH: QVQLQQSGAEVKKPGASVKVSCKASGYNFTGYYMHWVRQAPGQGLEWMGWINPNSGGTNYAQKFQGRVTMTRDTSISTAYMELSRLGSDDTAVYYCATDSFDYWGRGTLVTVSS
VL: not shown
notes: phage scFv
Regarding B8, the binding result in assay [1] and in assay [2] was “binds” each time.

B9: hN1S3-038 (scFv, V domains shown)
VH: EVQLVQSGAEVKKPGASVKVSCKASGYNFTGYYMHWVRQAPGQGLEWMGWINPNSGGTNYAQKFQGRVIMTRDTSISTAYMELSRLTSDDTAVYYCATDSFDYWGRGTTVTVSR
VL: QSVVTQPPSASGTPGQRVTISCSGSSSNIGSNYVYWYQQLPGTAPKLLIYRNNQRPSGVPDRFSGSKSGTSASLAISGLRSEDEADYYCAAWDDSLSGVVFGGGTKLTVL
notes: phage scFv
In the case of B9, the binding result in assay [1] and in assay [2] was “binds” in each case.

B10: N1wc572 (scFv, V domains shown)
VH: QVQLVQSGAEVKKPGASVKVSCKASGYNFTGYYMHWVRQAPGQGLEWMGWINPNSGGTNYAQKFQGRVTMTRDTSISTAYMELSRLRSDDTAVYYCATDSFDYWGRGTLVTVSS
VL: LPVLTQPPSASGTPGQRVTISCSGSSSNIGSNPVNWYQQLPGSAPKLLVYSDDQRPSGVPDRFSGSKSGASASLAISGLQSEDESDYYCAAWDDSLNAVVFGGGTKVTVL
notes: phage scFv
Take B10: the binding result in assay [1] and in assay [2] was “binds” throughout.

B11: hN1S3-124 (scFv, V domains shown)
VH: EVQLVQSGAEVKKPGASVKVSCKASGYNFTGYYMHWVRQAPGQGLEWMGWINPNSGGTNYAQKFQGRVTMTRDTSISTAYMELSRLRSDDTAVYYCATDSFDYWGRGTTVTVSS
VL: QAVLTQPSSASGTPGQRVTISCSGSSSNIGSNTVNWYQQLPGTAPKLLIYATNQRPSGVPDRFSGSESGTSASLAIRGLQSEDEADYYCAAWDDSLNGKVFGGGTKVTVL
notes: phage scFv
Take B11: the binding result in assay [1] and in assay [2] was “binds” each time.

B12: hN1S3-023 (scFv, V domains shown)
VH: EVQLVQSGAEVKKPGASVKVSCKASGYNFTGYYMHWVRQAPGQGLEWMGWINPNSGGTNYAQKFQGRVTMTRDTSISTAYMELSRLRSDDTAVYYCATDSFDYWGQGTMVTVSS
VL: not shown
notes: phage scFv
Turning to B12, the binding result in assay [1] and in assay [2] was “binds” in each case.

B13: hN1S3-096 (scFv, V domains shown)
VH: EVQLVQSGAEVKKPGASVKVSCKASGYNFTGYYMHWVRQAPGQGLEWMGWINPNSGGTNYAQKFQGRVTMTRDTSISTAYMELSRLRSDDTAVYYCATDSFDYWGRGTTVTVSS
VL: QPVLTQPPSASGTPGQRVTISCSGSSSNIASNSVYWYQQLPGTAPKLLIYRNNQRPSGVPDRFSGSQSGASASLAISGLRSEDEADYYCAAWDDNLYGVVFGGGTKLTVL
notes: phage scFv
In the case of B13, the binding result in assay [1] and in assay [2] was “binds” each time.

B14: hN1S3-036 (scFv, V domains shown)
VH: EVQLVQSGAEVKKPGASVKVSCKASGYNFTGYYMHWVRQAPGQGLEWMGWINPNSGGTNYAQKFQGRVTMTRDTSISTAYMELSRLRSDDTAVYYCATDSFDYWGRGTMVTVSS
VL: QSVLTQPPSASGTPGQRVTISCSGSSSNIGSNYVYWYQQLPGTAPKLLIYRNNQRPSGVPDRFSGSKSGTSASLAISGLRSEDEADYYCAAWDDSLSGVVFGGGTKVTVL
notes: phage scFv
Turning to B14, the binding result in assay [1] and in assay [2] was “binds” in each case.

B15: hN1S3-001 (scFv, V domains shown)
VH: EVQLVQSGAEVKKPGASVKVSCKASGYNFTGYYMHWVRQAPGQGLEWMGWINPNSGGTNYAQKFQGRVTMTRDTSISTAYMELSRLRSDDTAVYYCATDSFDYWGQGTMVTVSS
VL: not shown
notes: phage scFv
B15: the binding result in assay [1] and in assay [2] was “binds” in each case.

B16: hN1S3-032 (scFv, V domains shown)
VH: EVQLVQSGAEVKKPGASVKVSCKASGYNFTGYYMHWVRQAPGQGLEWMGWINPNSGGTNYAQKFQGRVTMTRDTSISTAYMELSRLRSDDTAVYYCATDSFDYWGKGTLVTVSS
VL: QAVLTQPSSVSGAPGQRVTISCTGSSSNIGAGYDVHWYRQLPGTAPKLLLYGNDNRPSGVPDRFSGSKSGASASLAITGLRADDEADYYCQSYDSSLSGSVFGGGTKVTVL
notes: phage scFv
As to B16, the binding result in assay [1] and in assay [2] was “binds” throughout.

B17: hN1S3-092 (scFv, V domains shown)
VH: EVQLVQSGAEVKKPGASVKVSCKASGYNFTGYYMHWVRQAPGQGLEWMGWINPNSGGTNYAQKFQGRVTMTRDTSISTAYMELSRLRSDDTAVYYCATDSFDYWGQGTLVTVSS
VL: QSVLTQPPSASGTPGQRVTISCSGSSSNIGANYVYWYQQLPGTAPKLLIYKNDQRPSGVPDRFSGSKSGTSASLAISGLRSEDEADYYCAAWDDSLSGLVFGGGTKVTVL
notes: phage scFv
On to B17, for which the binding result in assay [1] and in assay [2] was “binds” in each case.

(Values after US20110286916A1 (published 2011).)
